Results published in IntAct's records for PubMed 22078559.

B1: Double-strand break repair protein MRE11 (Homo sapiens), P49959 (parent)
chain: MSTADALDDENTFKILVATDIHLGFMEKDAVRGNDTFVTLDEILRLAQENEVDFILLGGDLFHENKPSRKTLHTCLELLRKYCMGDRPVQFEILSDQSVNFGFSKFPWVNYQDGNLNISIPVFSIHGNHDDPTGADALCALDILSCAGFVNHFGRSMSVEKIDISPVLLQKGSTKIALYGLGSIPDERLYRMFVNKKVTMLRPKEDENSWFNLFVIHQNRSKHGSTNFIPEQFLDDFIDLVIWGHEHECKIAPTKNEQQLFYISQPGSSVVTSLSPGEAVKKHVGLLRIKGRKMNMHKIPLHTVRQFFMEDIVLANHPDIFNPDNPKVTQAIQSFCLEKIEEMLENAERERLGNSHQPEKPLVRLRVDYSGGFEPFSVLRFSQKFVDRVANPKDIIHFFRHREQKEKTGEEINFGKLITKPSEGTTLRVEDLVKQYFQTAEKNVQLSLLTERGMGEAVQEFVDKEEKDAIEELVKYQLEKTQRFLKERHIDALEDKIDEEVRRFRETRQKNTNEEDDEVREAMTRARALRSQSEESASAFSADDLMSIDLAEQMANDSDDSISAATNKGRGRGRGRRGGRGQNSASRGGSQRGRADTGLETSTRSRNSKTAVSASRNMSIIDAFKSTRQQPSRNVTTKNYSEVIEVDESDVEEDIFPTTSKTDQRWSSTSSSKIMSQSQVSKGVDFESSEDDDDDPFMNTSSLRRNRR

Variants of: B1
Details: with nbn_human NBN

| Variant | effect of a mutation on the interaction |
| --- | --- |
| N117L | disrupting interaction |
| R80A | disrupting interaction |
| S104C | decreasing interaction |
| D86L | decreasing interaction |

Continued, values first:

| effect of a mutation on the interaction | Variant |
| --- | --- |
| disrupting interaction | P121G |
| decreasing interaction | C146A |
| disrupting interaction | R202G |
